Test [1] deals with T1, rHA subtype H7 (A/Netherlands/219/03) (Influenza A virus …, UniProt Q6VMK1).
T1 construct: source: bought: Protein Sciences Corp. (baculovirus vectors in insect cells)
Briefly: ELISA. Particulars: both partners purified. (In general: In an ELISA, binding on a coated surface is turned into a signal by an enzyme label.)

The target of test [2] is T2, rHA subtype H1 (A/New Caledonia/20/99) (Influenza A virus A/New …, UniProt Q6WG00, strain).
T2 construct: source: bought: Protein Sciences Corp. (baculovirus vectors in insect cells)
Kind of test: ELISA. Particulars: both partners purified.

B1: CR6323 human IgG1 (antibody, V domains shown)
VH: EVQLVESGAEVKKPGSSVKVSCKASGGTFSSYGISWVRQAPGQGLEWMGDIIGMFGSTNYAQNFQGRLTITADESTSTAYMELSSLRSEDTAVYYCARSSGYYPAYLPHWGQGTLVTVSS
VL: not shown
Turning to B1, the binding result in test [1] is given as “no binding (tested: 5 µg/ml IgG1)”; in test [2] it was “binds”.

(Values after article PMC2596486 (PLoS ONE, 2008).)
